Test results reported in US20090181003.

How the values were obtained:
[1] = test system: recombinant S6K2 (highly purified)
[2] = test system: PI3-K (p85a/p110a complex)
[3] = test system: recombinant S6K1 (highly purified)
PDK1 (recombinant) = test system: T1, PDK1 (recombinant)
T1 sequence (O15530 1-556, species assumed, looked up): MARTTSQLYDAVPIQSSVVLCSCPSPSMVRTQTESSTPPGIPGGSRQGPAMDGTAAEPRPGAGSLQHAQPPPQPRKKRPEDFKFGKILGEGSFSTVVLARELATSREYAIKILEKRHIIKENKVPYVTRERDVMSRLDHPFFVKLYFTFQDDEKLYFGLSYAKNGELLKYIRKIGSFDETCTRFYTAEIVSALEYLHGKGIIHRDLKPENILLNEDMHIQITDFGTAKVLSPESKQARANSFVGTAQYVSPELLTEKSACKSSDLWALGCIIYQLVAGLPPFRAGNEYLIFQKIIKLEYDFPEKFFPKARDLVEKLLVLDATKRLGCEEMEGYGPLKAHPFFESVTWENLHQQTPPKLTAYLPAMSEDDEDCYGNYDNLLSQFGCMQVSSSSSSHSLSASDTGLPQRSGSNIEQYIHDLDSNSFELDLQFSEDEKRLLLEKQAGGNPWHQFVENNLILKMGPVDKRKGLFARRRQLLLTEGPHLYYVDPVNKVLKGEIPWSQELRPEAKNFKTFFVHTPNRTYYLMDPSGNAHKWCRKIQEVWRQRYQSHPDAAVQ

Chain of recombinant S6K2 (highly purified) (chain, as listed by the source): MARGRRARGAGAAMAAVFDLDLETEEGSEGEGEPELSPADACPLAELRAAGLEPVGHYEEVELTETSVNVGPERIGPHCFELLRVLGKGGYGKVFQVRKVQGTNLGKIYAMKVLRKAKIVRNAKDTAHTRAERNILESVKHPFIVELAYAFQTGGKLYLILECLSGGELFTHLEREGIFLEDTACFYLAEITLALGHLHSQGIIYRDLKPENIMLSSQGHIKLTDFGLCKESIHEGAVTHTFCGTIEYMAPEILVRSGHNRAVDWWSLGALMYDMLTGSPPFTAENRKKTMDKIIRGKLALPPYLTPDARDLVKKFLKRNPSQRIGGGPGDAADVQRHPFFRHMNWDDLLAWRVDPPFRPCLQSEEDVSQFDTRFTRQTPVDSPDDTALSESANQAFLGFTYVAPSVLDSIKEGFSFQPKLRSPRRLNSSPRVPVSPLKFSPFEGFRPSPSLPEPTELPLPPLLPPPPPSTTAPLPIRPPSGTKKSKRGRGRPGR
Chain of PKB/Akt (recombinant) (P31749 whole entry): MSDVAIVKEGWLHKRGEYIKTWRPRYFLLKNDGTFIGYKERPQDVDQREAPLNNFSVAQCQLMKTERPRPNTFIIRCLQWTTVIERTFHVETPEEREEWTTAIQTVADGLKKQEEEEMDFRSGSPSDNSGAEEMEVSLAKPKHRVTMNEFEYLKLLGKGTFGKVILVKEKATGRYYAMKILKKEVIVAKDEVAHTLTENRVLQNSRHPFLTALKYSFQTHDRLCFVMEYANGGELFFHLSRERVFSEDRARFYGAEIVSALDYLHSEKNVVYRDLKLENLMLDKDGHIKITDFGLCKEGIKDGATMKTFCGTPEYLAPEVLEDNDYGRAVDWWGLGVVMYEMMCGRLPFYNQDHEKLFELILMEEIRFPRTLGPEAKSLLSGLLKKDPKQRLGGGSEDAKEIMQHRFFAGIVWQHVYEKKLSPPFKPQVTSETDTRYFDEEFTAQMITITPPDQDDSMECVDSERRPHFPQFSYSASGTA

full-length p300
in vitro acetylation by immunoprecipitated full-length p300 [1]: S6K2 is acetylated in the presence of p300 and AcCoA | site of in vitro acetylation (MALDI mass spectrometry of Arg-C peptide 297 to 310) [1]: contains a lysine at position 2 (residue 298 in S6K2). This peptide was sequenced and the acetylated lysine was confirmed (data not shown) | in vitro acetylation by immunoprecipitated full-length p300 [2]: no acetylation is observed for PKB/Akt, PDK1, PI3-K (p85a/p110a complex) under conditions used | in vitro acetylation by immunoprecipitated full-length p300 (PKB/Akt (recombinant)): no acetylation is observed for PKB/Akt, PDK1, PI3-K (p85a/p110a complex) under conditions used | site of in vitro acetylation (MALDI tandem mass spectrometry of tryptic peptide 509Q-R522) [3]: this peptide was acetylated on the Lysine 516 | in vitro acetylation by immunoprecipitated full-length p300 (PKCa (recombinant)): We detected weak, but reproducible acetylation of PKCa | in vitro acetylation by immunoprecipitated full-length p300 (PDK1 (recombinant)): no acetylation is observed for PKB/Akt, PDK1, PI3-K (p85a/p110a complex) under conditions used
